The values that follow come from US20200261603A1 (published 2020).

First the molecules themselves.
B1: P10-1 Fab (Fab, V domains shown)
VH: QVQLVQSGAEVKKPGASVKVSCKASGYTFTNYGLSWVRQAPGQGLEWMGENHPGSGIIYHNEKFRGRVTLTADRSTSTAYMELSSLRSEDTAVYYCARSSGTRGFAYWGQGTLVTVSS
VL: DVVMTQTPLSLSVTPGQPASISCRSSQSIVHSNGNTYLEWYLQKPGQSPQLLIYRVSNRFSGVPDRFSGSGSGTDFTLKISRVEAEDVGVYYCFQGSHGPWTFGQGTKLEIKR
B2: P10-2 Fab Dye (Fab, V domains shown)
VH: QVQLVQSGAEVKKPGASVKVSCKASGYTFTNYGLSWVRQAPGQGLEWMGENHPGSGIIYHNEKFRGRVTLTADRSTSTAYMELSSLRSEDTAVYYCARSSGTRGFDYWGQGTLVTVSS
VL: DVVMTQTPLSLSVTPGQPASISCRSSQSIVHSNGNTYLEWYLQKPGQSPQLLIYRVSNRFSGVPDRFSGSGSGTDFTLKISRVEAEDVGVYYCFQGSHGPWTFGQGTKLEIKR
modifications: IRDye800CW (NHS ester) on Lys of the Fab fragment; number and positions not stated; IRDye800CW (NHS ester) on Lys of the Fab fragment; number and positions not stated; N-terminal glutamine largely pyroglutamic acid
B3: P10-2 Fab (Fab, V domains shown)
VH: QVQLVQSGAEVKKPGASVKVSCKASGYTFTNYGLSWVRQAPGQGLEWMGENHPGSGIIYHNEKFRGRVTLTADRSTSTAYMELSSLRSEDTAVYYCARSSGTRGFDYWGQGTLVTVSS
VL: DVVMTQTPLSLSVTPGQPASISCRSSQSIVHSNGNTYLEWYLQKPGQSPQLLIYRVSNRFSGVPDRFSGSGSGTDFTLKISRVEAEDVGVYYCFQGSHGPWTFGQGTKLEIKR
modifications: heavy chain N-terminal glutamine was modified into pyroglutamic acid in a great majority of purified antibodies
B4: P10-1 Fab Dye (Fab, V domains shown)
VH: QVQLVQSGAEVKKPGASVKVSCKASGYTFTNYGLSWVRQAPGQGLEWMGENHPGSGIIYHNEKFRGRVTLTADRSTSTAYMELSSLRSEDTAVYYCARSSGTRGFAYWGQGTLVTVSS
VL: DVVMTQTPLSLSVTPGQPASISCRSSQSIVHSNGNTYLEWYLQKPGQSPQLLIYRVSNRFSGVPDRFSGSGSGTDFTLKISRVEAEDVGVYYCFQGSHGPWTFGQGTKLEIKR
modifications: IRDye800CW (NHS ester) on Lys of the Fab fragment; number and positions not stated
B5: P10-2 Fab DFO (Fab, V domains shown)
VH: QVQLVQSGAEVKKPGASVKVSCKASGYTFTNYGLSWVRQAPGQGLEWMGENHPGSGIIYHNEKFRGRVTLTADRSTSTAYMELSSLRSEDTAVYYCARSSGTRGFDYWGQGTLVTVSS
VL: DVVMTQTPLSLSVTPGQPASISCRSSQSIVHSNGNTYLEWYLQKPGQSPQLLIYRVSNRFSGVPDRFSGSGSGTDFTLKISRVEAEDVGVYYCFQGSHGPWTFGQGTKLEIKR
modifications: p-SCN-Bn-deferoxamine on Lys of the Fab fragment; number and positions not stated; p-SCN-Bn-deferoxamine on Lys of the Fab fragment; number and positions not stated; N-terminal glutamine largely pyroglutamic acid

The target in the first experiment is T1, human cancer-specific MUC1 (human, UniProt P15941 24-1255, cancer-specific incomplete O-glycosylation (T, Tn, 2,3ST) of threonine at position 9 of the 20-amino acid tandem repeat … (SEQ ID NO: 15), as the background describes it). The experiment can be described thus: Cell ELISA. (In general: An ELISA detects its analyte on a solid surface through an enzyme-linked reagent.)
As to B1, the Kd (usually the concentration at which binding is half-saturated) was 350 pM.
The same measure, in the same setting: under B2 stands 490 pM; under B3, 290 pM.
On the same count and under the same terms, under B4 stands 660 pM.

In a further experiment the target is T1, human cancer-specific MUC1. The experiment can be described thus: Cell ELISA. The source holds these as a separate data set.
In turn, B5 returned a Kd of 360 pM.
Same read-out and setting: in the case of B3 it was 370 pM.
